System: T1, Gs12-10 (uncultured bacterium (metagenome)?)
T1 sequence: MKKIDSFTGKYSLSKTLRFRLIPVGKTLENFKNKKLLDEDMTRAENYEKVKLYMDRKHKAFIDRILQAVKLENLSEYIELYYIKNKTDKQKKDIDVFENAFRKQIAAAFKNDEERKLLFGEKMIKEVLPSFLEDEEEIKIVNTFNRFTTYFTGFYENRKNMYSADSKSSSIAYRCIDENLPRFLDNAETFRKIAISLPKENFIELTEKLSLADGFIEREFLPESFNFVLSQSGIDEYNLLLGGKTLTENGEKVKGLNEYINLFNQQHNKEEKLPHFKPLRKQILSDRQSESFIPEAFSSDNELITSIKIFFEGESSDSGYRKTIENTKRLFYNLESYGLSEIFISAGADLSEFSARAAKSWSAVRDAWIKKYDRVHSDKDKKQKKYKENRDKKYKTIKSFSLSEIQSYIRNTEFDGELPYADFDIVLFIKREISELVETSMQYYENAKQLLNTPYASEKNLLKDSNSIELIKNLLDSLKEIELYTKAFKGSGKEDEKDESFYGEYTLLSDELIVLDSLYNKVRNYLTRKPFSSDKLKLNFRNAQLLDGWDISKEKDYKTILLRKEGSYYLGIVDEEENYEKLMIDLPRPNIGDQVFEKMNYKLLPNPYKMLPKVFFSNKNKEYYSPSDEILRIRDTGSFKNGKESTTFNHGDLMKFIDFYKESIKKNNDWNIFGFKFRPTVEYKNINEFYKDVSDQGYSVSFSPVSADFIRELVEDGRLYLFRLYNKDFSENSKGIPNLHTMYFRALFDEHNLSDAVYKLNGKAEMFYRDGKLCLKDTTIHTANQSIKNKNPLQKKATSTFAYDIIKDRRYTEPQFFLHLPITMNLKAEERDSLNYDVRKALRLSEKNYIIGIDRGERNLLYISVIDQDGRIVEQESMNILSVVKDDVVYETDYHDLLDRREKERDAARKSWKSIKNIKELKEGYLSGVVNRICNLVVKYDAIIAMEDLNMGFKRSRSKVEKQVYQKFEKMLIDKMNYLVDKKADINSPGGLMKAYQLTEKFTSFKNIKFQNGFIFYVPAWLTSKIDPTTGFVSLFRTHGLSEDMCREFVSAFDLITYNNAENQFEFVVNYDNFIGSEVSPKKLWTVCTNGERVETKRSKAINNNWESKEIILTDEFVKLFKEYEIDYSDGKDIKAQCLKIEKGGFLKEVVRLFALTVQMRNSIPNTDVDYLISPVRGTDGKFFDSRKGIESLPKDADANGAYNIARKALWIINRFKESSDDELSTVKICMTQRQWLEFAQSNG
Test: cleavage_in_vitro
Conditions: PAM ATTT; CutSmart buffer, 37 C, 2 h

Substance “crRNA-ATTT pUC19 ; pUC19 circular plasmid” has an activity of 100 % linearised.

— patent publication US20240368675
